Data published in FireProtDB.
Values joined by “and” are separate entries in the source; they are usually repeats but may differ in a detail not shown here. Identical values can stand only once.

[1] = Oryctolagus cuniculus, pH 7, Thermal, DSC, Glycerol 20 % v/v, KCl 100 mM, reversible: no, whole UniProt chain shown
[2] = Escherichia coli (strain K12), pH 7.2, 51.8 °C, Thermal, DSC, HEPES 0.05 mM, structure 1ANK
[3] = Escherichia coli (strain K12), pH 7.2, Thermal, DSC, HEPES 0.05 mM, structure 1ANK
[4] = Escherichia coli (strain K12), pH 7.4, Thermal, DSC, HEPES 50 mM, structure 1ANK
[5] = Escherichia coli (strain K12), pH 7.2, Thermal, DSC, HEPES 0.05 mM
[6] = Escherichia coli (strain K12), pH 7.4, Thermal, DSC, HEPES 50 mM
[7] = Methanobacterium formicicum, pH 7.2, 25 °C, GdnHCl, CD, potasssium phosphate 20 mM, KCl 200 mM, reversible: yes
[8] = Escherichia coli (strain K12), pH 7, 10 °C, Urea, CD, Potassium phosphate 50 mM, KCl 100 mM
[9] = Escherichia coli (strain K12), pH 7, 25 °C, GdnHCl, Fluorescence, potassium phosphate 50 mM, KCl 100 M, reversible: yes
[10] = Escherichia coli (strain K12), pH 7, 25 °C, Urea, CD, Potassium phosphate 50 mM, KCl 100 mM
[11] = Escherichia coli (strain K12), pH 7, 25 °C, Urea, Fluorescence, potassium phosphate 50 mM, KCl 100 mM, reversible: yes
[12] = Gallus gallus, pH 7, 25 °C, NaClO4 titration, CD, PIPES 10 mM, NaCl 50 mM, reversible: no
[13] = Saccharomyces cerevisiae (strain ATCC 204508 / S288c), pH 6, 46.5 °C, Thermal, Absorbance, Sodium phosphate 100 mM, reversible: yes, structure 1YCC
[14] = Saccharomyces cerevisiae (strain ATCC 204508 / S288c), pH 6, Thermal, Absorbance, Sodium phosphate 100 mM, reversible: yes, structure 1YCC
[15] = Saccharomyces cerevisiae (strain ATCC 204508 / S288c), pH 7.5, 22 °C, GdnHCl, CD, Tris 20 mM, NaCl 40 mM, structure 1YCC
[16] = Saccharomyces cerevisiae (strain ATCC 204508 / S288c), pH 4.6, 37 °C, Thermal, DSC, Potassium acetate 0.1 M, reversible: yes, structure 1YCC
[17] = Saccharomyces cerevisiae (strain ATCC 204508 / S288c), pH 6, 20 °C, GdnHCl, Fluorescence, Sodium phosphate 0.1 M, reversible: yes, structure 1YCC
[18] = Saccharomyces cerevisiae (strain ATCC 204508 / S288c), pH 6, 20 °C, GdnHCl, Fluorescence, Sodium phosphate 0.1 M, reversible: yes
[19] = Saccharomyces cerevisiae (strain ATCC 204508 / S288c), pH 7, 25 °C, GdnHCl, CD, Tris 20 mM, NaCl 40 mM, reversible: yes
[20] = Saccharomyces cerevisiae (strain ATCC 204508 / S288c), pH 7.5, 22 °C, GdnHCl, CD, Tris 20 mM, NaCl 40 mM

Sequence of Cytochrome c isoform 1 P77I, P00044 (P00044 whole entry P77I, canonical isoform): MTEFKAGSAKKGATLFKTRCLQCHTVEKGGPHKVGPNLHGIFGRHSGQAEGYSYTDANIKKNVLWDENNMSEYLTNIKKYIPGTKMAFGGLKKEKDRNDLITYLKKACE
Sequence of Archaeal histone B wild type, P48784 (P48784 whole entry): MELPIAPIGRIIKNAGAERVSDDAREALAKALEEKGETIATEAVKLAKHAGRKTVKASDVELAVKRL
Sequence of Adenylate kinase wild type, P69441 (P69441 whole entry): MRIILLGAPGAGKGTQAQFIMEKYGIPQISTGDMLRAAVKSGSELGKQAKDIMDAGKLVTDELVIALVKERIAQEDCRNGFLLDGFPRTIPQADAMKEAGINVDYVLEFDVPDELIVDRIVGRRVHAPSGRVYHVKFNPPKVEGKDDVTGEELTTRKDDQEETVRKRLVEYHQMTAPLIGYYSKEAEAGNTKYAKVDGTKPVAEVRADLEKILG
Sequence of Cytochrome c isoform 1 N58G|C108A, P00044 N58G C108A (P00044 whole entry N58G/C108A, canonical isoform): as the sequence (P00044 whole entry P77I, canonical isoform) above, with N58G, I77P, C108A counted along it
Sequence of Cytochrome c isoform 1 wild type, P00044 (P00044 whole entry, canonical isoform): as the sequence (P00044 whole entry P77I, canonical isoform) above, with I77P counted along it
Sequence of Cytochrome c isoform 1 P77T, P00044 (P00044 whole entry P77T, canonical isoform): as the sequence (P00044 whole entry P77I, canonical isoform) above, with I77T counted along it
Sequence of Cytochrome c isoform 1 G35S|N58I, P00044 G35S N58I (P00044 whole entry G35S/N58I, canonical isoform): as the sequence (P00044 whole entry P77I, canonical isoform) above, with G35S, N58I, I77P counted along it
Sequence of Cytochrome c isoform 1 C108S, P00044 (P00044 whole entry C108S, canonical isoform): as the sequence (P00044 whole entry P77I, canonical isoform) above, with I77P, C108S counted along it
Sequence of Cold shock protein CspA wild type, P0A9X9 (P0A9X9 whole entry): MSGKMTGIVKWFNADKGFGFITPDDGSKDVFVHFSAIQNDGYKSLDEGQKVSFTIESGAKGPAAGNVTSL
Sequence of Cytochrome c isoform 1 N58I, P00044 (P00044 whole entry N58I, canonical isoform): as the sequence (P00044 whole entry P77I, canonical isoform) above, with N58I, I77P counted along it
Sequence of Cytochrome c isoform 1 H32N|H39N|H45Q|C108S, P00044 H32N H39N H45Q C108S (P00044 whole entry H32N/H39N/H45Q/C108S, canonical isoform): as the sequence (P00044 whole entry P77I, canonical isoform) above, with H32N, H39N, H45Q, I77P, C108S counted along it
Sequence of Cytochrome c isoform 1 H39P|N58I, P00044 H39P N58I (P00044 whole entry H39P/N58I, canonical isoform): as the sequence (P00044 whole entry P77I, canonical isoform) above, with H39P, N58I, I77P counted along it
Sequence of Cytochrome c isoform 1 N58I|C108A, P00044 N58I C108A (P00044 whole entry N58I/C108A, canonical isoform): as the sequence (P00044 whole entry P77I, canonical isoform) above, with N58I, I77P, C108A counted along it
Sequence of Cytochrome c isoform 1 C108A, P00044 (P00044 whole entry C108A, canonical isoform): as the sequence (P00044 whole entry P77I, canonical isoform) above, with I77P, C108A counted along it
Sequence of Cytochrome c V93A|S104A, P67881 V93A S104A (P67881 whole entry V93A/S104A): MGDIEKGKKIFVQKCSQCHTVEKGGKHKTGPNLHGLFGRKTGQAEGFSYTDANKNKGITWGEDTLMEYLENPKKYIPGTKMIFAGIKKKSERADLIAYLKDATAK
Sequence of Creatine kinase B-type wild type, P12277 (P12277 whole entry): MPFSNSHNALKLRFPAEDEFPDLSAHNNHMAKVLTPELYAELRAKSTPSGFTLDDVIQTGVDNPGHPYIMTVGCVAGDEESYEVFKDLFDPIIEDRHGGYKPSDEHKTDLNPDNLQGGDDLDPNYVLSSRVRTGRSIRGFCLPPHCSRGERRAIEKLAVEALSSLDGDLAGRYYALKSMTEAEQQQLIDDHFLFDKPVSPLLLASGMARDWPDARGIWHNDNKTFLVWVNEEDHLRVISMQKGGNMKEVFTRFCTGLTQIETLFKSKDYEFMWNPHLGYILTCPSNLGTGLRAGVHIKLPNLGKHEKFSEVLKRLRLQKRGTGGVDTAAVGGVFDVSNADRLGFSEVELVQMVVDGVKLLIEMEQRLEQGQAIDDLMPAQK
Sequence of Cytochrome c V93A, P67881 (P67881 whole entry V93A): as the sequence (P67881 whole entry V93A/S104A) above, with A104S counted along it
Sequence of Endo-1,4-beta-xylanase wild type, Q56013 (Q56013 entry or part of it): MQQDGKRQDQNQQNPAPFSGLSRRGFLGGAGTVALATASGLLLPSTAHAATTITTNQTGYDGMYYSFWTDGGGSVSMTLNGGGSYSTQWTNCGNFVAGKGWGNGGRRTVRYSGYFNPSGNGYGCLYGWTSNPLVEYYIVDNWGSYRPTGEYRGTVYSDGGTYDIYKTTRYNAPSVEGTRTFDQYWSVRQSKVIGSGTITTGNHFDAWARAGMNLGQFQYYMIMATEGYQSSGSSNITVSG
Sequence of Cytochrome c wild type, P67881 (P67881 whole entry): as the sequence (P67881 whole entry V93A/S104A) above, with A93V, A104S counted along it
Sequence of Cytochrome c wild type, P00041 (P00041 whole entry): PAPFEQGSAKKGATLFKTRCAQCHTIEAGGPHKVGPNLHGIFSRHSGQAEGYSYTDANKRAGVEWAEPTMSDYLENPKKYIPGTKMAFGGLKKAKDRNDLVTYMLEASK

AKKVLPLLLPPLVXAALGLAXF [wild type]
Tm [1]: 42.3 °C | unfolding enthalpy (calorimetric) [1]: 300 kcal/mol

APRLPQCQGDDQEKCLCNKDECPPGQCRFPRGDADPYCE [Decorsin wild type]
Tm (Macrobdella decora, pH 7, Thermal, CD, Na2HPO4 10 mM, reversible: Yes, whole UniProt chain shown): 74 °C

Adenylate kinase D84H, P69441
ddG of mutation (higher = less stable) [2]: 1.4 kcal/mol | Tm [3]: 44.6 °C | change of melting temperature, mutant - wild type (higher = more stable) [3]: -7.2 °C | unfolding enthalpy (calorimetric) [3]: 63 kcal/mol

Adenylate kinase F86L, P69441
ddG of mutation (higher = less stable) [2]: 0.8 kcal/mol | Tm [3]: 49.2 °C | change of melting temperature, mutant - wild type (higher = more stable) [3]: -2.6 °C | unfolding enthalpy (calorimetric) [3]: 97 kcal/mol

Adenylate kinase G85V, P69441
ddG of mutation (higher = less stable) [2]: 2.4 kcal/mol | Tm [3]: 40.7 °C | change of melting temperature, mutant - wild type (higher = more stable) [3]: -11.1 °C | unfolding enthalpy (calorimetric) [3]: 70 kcal/mol

Adenylate kinase R88G, P69441
ddG of mutation (higher = less stable) (Escherichia coli (strain K12), pH 7.4, 51.8 °C, Thermal, DSC, HEPES 50 mM, structure 1ANK): 0.2 kcal/mol | Tm [4]: 51 °C | change of melting temperature, mutant - wild type (higher = more stable) [4]: -0.8 °C | unfolding enthalpy (calorimetric) [4]: 75 kcal/mol | unfolding enthalpy (van 't Hoff) [4]: 161 kcal/mol

Adenylate kinase wild type, P69441
Tm [5]: 51.8 °C | unfolding enthalpy (calorimetric) [5]: 95 kcal/mol | Tm [6]: 51.8 °C | unfolding enthalpy (calorimetric) [6]: 95 kcal/mol | unfolding enthalpy (van 't Hoff) [6]: 158 kcal/mol

Archaeal histone B wild type, P48784
denaturant m value [7]: 3.4 kcal/mol/M | unfolding free energy [7]: 5.7 kcal/mol and 10.8 kcal/mol

Cold shock protein CspA wild type, P0A9X9
denaturant m value [8]: 0.59 kcal/mol/M | denaturant midpoint (higher = more stable) [8]: 4.95 M | unfolding free energy [8]: 2.92 kcal/mol | denaturant m value [9]: 2.2 kcal/mol/M | denaturant midpoint (higher = more stable) [9]: 1.4 M | unfolding free energy [9]: 3.1 kcal/mol | denaturant m value [10]: 0.71 kcal/mol/M | denaturant midpoint (higher = more stable) [10]: 4.2 M | unfolding free energy [10]: 3 kcal/mol | denaturant m value [11]: 0.71 kcal/mol/M | denaturant midpoint (higher = more stable) [11]: 4.2 M | unfolding free energy [11]: 3 kcal/mol | Tm (Escherichia coli (strain K12), pH 7, Thermal, CD, potassium phosphate 50 mM, KCl 100 M, reversible: yes): 59 °C

Creatine kinase B-type wild type, P12277
Tm (Homo sapiens, pH 8, Thermal, CD, Tris-HCl, transition: 2, reversible: No): 47.3 °C | Tm (Homo sapiens, pH 8, Thermal, Fluorescence, Tris-HCl, transition: 2, reversible: No): 45.7 °C

Cytochrome c V93A, P67881
ddG of mutation (higher = less stable) [12]: 0.26 kcal/mol | unfolding free energy [12]: 4.91 kcal/mol

Cytochrome c V93A|S104A, P67881 V93A S104A
ddG of mutation (higher = less stable) [12]: 0.26 kcal/mol | unfolding free energy [12]: 4.91 kcal/mol

Cytochrome c isoform 1 C108A, P00044
ddG of mutation (higher = less stable) [13]: -2.9 kcal/mol | heat capacity change of unfolding [13]: 2 kcal/mol/K | Tm [14]: 58.1 °C | change of melting temperature, mutant - wild type (higher = more stable) [14]: 11.6 °C | heat capacity change of unfolding [14]: 2 kcal/mol/K | unfolding enthalpy (van 't Hoff) [14]: 89 kcal/mol

Cytochrome c isoform 1 C108S, P00044
ddG of mutation (higher = less stable) [13]: -2.8 kcal/mol | heat capacity change of unfolding [13]: 2 kcal/mol/K | Tm [14]: 57.8 °C | change of melting temperature, mutant - wild type (higher = more stable) [14]: 11.3 °C | heat capacity change of unfolding [14]: 2 kcal/mol/K | unfolding enthalpy (van 't Hoff) [14]: 87 kcal/mol

Cytochrome c isoform 1 G35S|N58I, P00044 G35S N58I
ddG of mutation (higher = less stable) [13]: 1.5 kcal/mol | heat capacity change of unfolding [13]: 2 kcal/mol/K | Tm [14]: 40.3 °C | change of melting temperature, mutant - wild type (higher = more stable) [14]: -6.2 °C | heat capacity change of unfolding [14]: 2 kcal/mol/K | unfolding enthalpy (van 't Hoff) [14]: 58 kcal/mol

Cytochrome c isoform 1 H32N|H39N|H45Q|C108S, P00044 H32N H39N H45Q C108S
ddG of mutation (higher = less stable) [15]: 1.05 kcal/mol | denaturant m value [15]: 3.83 kcal/mol/M | denaturant midpoint (higher = more stable) [15]: 1.04 M | unfolding free energy [15]: 4 kcal/mol

Cytochrome c isoform 1 H39P|N58I, P00044 H39P N58I
ddG of mutation (higher = less stable) [13]: 0.8 kcal/mol | heat capacity change of unfolding [13]: 2 kcal/mol/K | Tm [14]: 43.1 °C | change of melting temperature, mutant - wild type (higher = more stable) [14]: -3.4 °C | heat capacity change of unfolding [14]: 2 kcal/mol/K | unfolding enthalpy (van 't Hoff) [14]: 61 kcal/mol

Cytochrome c isoform 1 N58G|C108A, P00044 N58G C108A
ddG of mutation (higher = less stable) [13]: -0.9 kcal/mol | heat capacity change of unfolding [13]: 2 kcal/mol/K | Tm [14]: 50.1 °C | change of melting temperature, mutant - wild type (higher = more stable) [14]: 3.6 °C | heat capacity change of unfolding [14]: 2 kcal/mol/K | unfolding enthalpy (van 't Hoff) [14]: 50 kcal/mol

Cytochrome c isoform 1 N58I, P00044
unfolding free energy (Saccharomyces cerevisiae (strain ATCC 204508 / S288c), pH 4.6, 27 °C, GdnHCl, CD, Sodium acetate 50 mM, reversible: yes, structure 1YCC): 6.8 kcal/mol and 18 kcal/mol | ddG of mutation (higher = less stable) [16]: -3.14 kcal/mol | unfolding free energy [16]: 7.17 kcal/mol | ddG of mutation (higher = less stable) [13]: -4.3 kcal/mol | heat capacity change of unfolding [13]: 2 kcal/mol/K

Cytochrome c isoform 1 N58I|C108A, P00044 N58I C108A
ddG of mutation (higher = less stable) [13]: -6.2 kcal/mol | heat capacity change of unfolding [13]: 2 kcal/mol/K | Tm [14]: 71.5 °C | change of melting temperature, mutant - wild type (higher = more stable) [14]: 25 °C | heat capacity change of unfolding [14]: 2 kcal/mol/K | unfolding enthalpy (van 't Hoff) [14]: 115 kcal/mol

Cytochrome c isoform 1 P77I, P00044
ddG of mutation (higher = less stable) [17]: 1.7 kcal/mol | denaturant midpoint (higher = more stable) [17]: 0.72 M | unfolding free energy [17]: 1.9 kcal/mol

Cytochrome c isoform 1 P77T, P00044
ddG of mutation (higher = less stable) [17]: 1.7 kcal/mol | denaturant midpoint (higher = more stable) [17]: 0.72 M | unfolding free energy [17]: 1.9 kcal/mol

Cytochrome c isoform 1 wild type, P00044
unfolding free energy (Saccharomyces cerevisiae (strain ATCC 204508 / S288c), pH 4.6, 25 °C, Thermal, Absorbance, Sodium acetate 100 mM, reversible: yes): 5.3 kcal/mol | unfolding free energy (Saccharomyces cerevisiae (strain ATCC 204508 / S288c), pH 4.6, 25 °C, Thermal, CD, Sodium acetate 100 mM, reversible: yes): 5.3 kcal/mol | unfolding free energy (Saccharomyces cerevisiae (strain ATCC 204508 / S288c), pH 4.6, 27 °C, GdnHCl, CD, Sodium acetate 50 mM, reversible: yes): 5.6 kcal/mol and 15 kcal/mol | denaturant midpoint (higher = more stable) [18]: 1.07 M | unfolding free energy [18]: 3.6 kcal/mol | unfolding free energy (Saccharomyces cerevisiae (strain ATCC 204508 / S288c), pH 6, 25 °C, Thermal, Absorbance, Sodium phosphate 100 mM, reversible: yes): 3.8 kcal/mol | denaturant m value [19]: 3.71 kcal/mol/M | denaturant midpoint (higher = more stable) [19]: 1.06 M | unfolding free energy [19]: 3.93 kcal/mol | denaturant m value [20]: 4.24 kcal/mol/M | denaturant midpoint (higher = more stable) [20]: 1.19 M | unfolding free energy [20]: 5.05 kcal/mol

Cytochrome c wild type, P00041
unfolding free energy (Pichia kudriavzevii, pH 6.5, 25 °C, GdnHCl, CD, HCl 0.1 M, reversible: yes): 14 kcal/mol

Cytochrome c wild type, P67881
unfolding free energy [12]: 5.17 kcal/mol

Endo-1,4-beta-xylanase wild type, Q56013
Tm (Streptomyces sp. EC3, pH 6, Thermal, CD, Sodium phosphate 25 mM, reversible: no): 56.8 °C | Tm (Streptomyces sp. EC3, pH 6, Thermal, Fluorescence, Sodium phosphate 25 mM, reversible: no): 61.1 °C
